Source: publication doi:10.1101/2021.10.06.463400

Molecular target: actin (skeletal muscle thin filament) (mouse (endogenous in psoas myofibrils)) (UniProt P68134)
Test: cryo-EM structure

**Q.** Which stoichiometry, nebulin simple repeat to actin subunit does the source give for “nebulin (from UniProt E9Q1W3 1-7152) (natural protein)” here?
**A.** 1
